Test results published in US6613746.

Tests used:
[1] = target: ELAM-Rg, soluble ELAM-1-IgG1 chimera (ELAM-1 extracellular domain fused to hinge, CH2 and CH3 domains of human IgG1) (human) (UniProt P16581); assay: inhibition of adhesion of human T lymphocytes to immobilized ELAM-1, fusion protein at about 50 µg/ml
[2] = target: ELAM-Rg, soluble ELAM-1-IgG1 chimera (ELAM-1 extracellular domain fused to hinge, CH2 and CH3 domains of human IgG1) (human) (UniProt P16581); assay: inhibition of adhesion of myeloid HL60 cells to immobilized ELAM-1, fusion protein at about 50 µg/ml

Chain of ELAM-Rg, soluble ELAM-1-IgG1 chimera (ELAM-1 extracellular domain fused to hinge, CH2 and CH3 domains of human IgG1) (human) (P16581 22-556 limits assumed, stated change not applied): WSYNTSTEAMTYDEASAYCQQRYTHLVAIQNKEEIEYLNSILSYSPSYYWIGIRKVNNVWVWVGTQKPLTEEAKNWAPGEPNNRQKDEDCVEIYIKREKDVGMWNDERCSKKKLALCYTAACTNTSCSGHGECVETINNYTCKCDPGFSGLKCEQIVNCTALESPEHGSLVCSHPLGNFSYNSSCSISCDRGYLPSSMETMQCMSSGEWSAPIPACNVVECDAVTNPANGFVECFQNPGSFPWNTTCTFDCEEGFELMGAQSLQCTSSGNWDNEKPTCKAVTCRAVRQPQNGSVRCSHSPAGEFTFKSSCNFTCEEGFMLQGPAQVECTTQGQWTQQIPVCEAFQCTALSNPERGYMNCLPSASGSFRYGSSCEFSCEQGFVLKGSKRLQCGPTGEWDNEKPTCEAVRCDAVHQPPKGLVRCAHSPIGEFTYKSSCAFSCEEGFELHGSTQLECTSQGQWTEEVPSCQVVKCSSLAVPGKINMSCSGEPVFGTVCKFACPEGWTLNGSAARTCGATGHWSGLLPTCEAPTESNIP

With “α1-AGP-IgG1 fusion protein (α1-AGP-Hinge-CH2-CH3) produced in COS cells (Fc fusion)” the inhibition of adhesion [1] was over 50% and the inhibition of adhesion [2] was over 50%.
